Test results published in patent US5650283.

Key:
[1] = system: human AhR + ARNT expressed in yeast (Homo sapiens); assay: cell_activity; conditions: lacZ induction over background by betaNF or alphaNF; none with AHR or ARNT only
[2] = system: LexA(1-202)-AHRNΔ166 chimera (synthetic construct); assay: cell_activity; conditions: average lacZ induction over background, agonist dependent

Substance | activity [1] | activity [2]
DRE2-DRE3 lacZ reporter (pDRE23-Z) | 12 fold | –
eight LexA operator lacZ reporter (pSH18-34) | – | 90 fold
